The numbers were not newly measured in publication PMC5627252, which cites them from elsewhere.

Data set [1] has as its target FcγRIIIa (Homo sapiens) (UniProt P08637).
The target is the same in data set [2]. This is another data set of the same source.
Data set [3] shares this target. This is another data set of the same source.

Where two headings read alike, the source gives them in different places.

Sequence of FcγRIIIa (Homo sapiens) (P08637 17-254): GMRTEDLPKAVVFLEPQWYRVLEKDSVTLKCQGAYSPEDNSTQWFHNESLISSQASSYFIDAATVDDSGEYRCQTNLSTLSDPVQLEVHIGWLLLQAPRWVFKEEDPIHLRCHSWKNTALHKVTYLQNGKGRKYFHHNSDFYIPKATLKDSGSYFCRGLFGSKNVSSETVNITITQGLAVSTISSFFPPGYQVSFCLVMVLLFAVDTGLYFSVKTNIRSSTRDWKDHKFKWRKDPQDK

One may read the Kd as the free concentration of one partner at which half of the binding sites on the other are occupied at equilibrium, for simple one-to-one binding. For IgG1 Fc-GlcNAc Fc (from UniProt P01857), the Kd with FcγRIIIa (Homo sapiens) [1] is 995 nM. Consider IgG1 Fc-Man5 Fc (from UniProt P01857), for which the Kd in the data set with FcγRIIIa (Homo sapiens) [2] was 32 nM. Regarding IgG1 Fc-Man8 Fc (from UniProt P01857), the Kd with FcγRIIIa (Homo sapiens) [3] is 26 nM.
